Experimental data reported in patent US12448453 (NANJING IASO BIOTECHNOLOGY, dated 2025).
Numbering of substitutions follows the chain as printed. Numbers in names are those of the source. Blank lines part the entries; values can stand above or below the binder they belong to.

Key:
[1] = target: T1, CD22 antigen on the surface of target cells (Raji, REH, NALM6, JVM2, 3E09, 3D11) (human, UniProt P20273 20-847); assay: cell-based or functional assay
[2] = target: T1, CD22 antigen on the surface of target …; assay: cell-based or functional assay; remark: listed apart in the source
[3] = target: T1, CD22 antigen on the surface of target …; assay: cell-based or functional assay; remark: listed apart in the source
[4] = target: T2, CD22-FITC protein (Acro Biosystem, Cat. No. SI2-HF2H6) (UniProt P20273 20-687, FITC label); assay: flow cytometry of CAR-T cells stained with FITC-CD22 protein and APC anti-CD8, quadrant gate
T2 construct: Bought reagent; also called FITC-CD22 protein; CD22 protein
Description: Cell samples were stained with APC mouse anti-human CD8, PE anti-human EGFR and FITC-CD22 protein.
When the cells were cultured to the 6th or 7th day, the expression of CAR molecules, tEGFR molecules and CD8 on the cell surface was detected by flow cytometry. […] On day 6 of cell culture, approximately 5 ×10^5 cells were removed from each sample individually, and the medium was removed by centrifugation at 500 g. […] The mixtures were mixed well and incubated at 4° C. in the dark for 20 min. After completion of incubation, the cells were washed twice with PBS+1% HSA solution again, re-suspended in 200 μL of PBS+1% HSA solution, and then loaded onto the instrument for testing.

human CD22 [5] = target: T3, human CD22 (human, UniProt P20273 20-687, limits assumed); assay: ForteBio, antibody in the form of IgG, avid
T3 construct: CD22-llama-Fc and CD22-his are named only for the yeast library sorting; also called CD22 antigen

human CD22 [6] = target: T3, human CD22; assay: ForteBio, antibody in the form of Fab, monovalent

B1: clone 28 CAR (CD22-targeted chimeric antigen receptor, clone 28 scFv with CD8α hinge and transmembrane region, 4-1BB and CD3z), on reporter cells or CAR-T cells (other)
chain: QVQLQESGPGLVKPSETLSLTCTVSGGSISSYYWSWIRQPAGKGLEWIGRIYTSGSTNYNPSLKSRVTMSVDTSKNQFSLKLSSVTAADTAVYYCARDLYRDGMDVWGQGTTVTVSSGGGGSGGGGSGGGGSDIQMTQSPSTLSASVGDRVTITCRASQSISSWLAWYQQKPGKAPKLLISDASSLESGVPSRFSGSGSGTEFTLTISSLQPDDFATYYCQQANTYSPTFGGGTKVEIKFVPVFLPAKPTTTPAPRPPTPAPTIASQPLSLRPEACRPAAGGAVHTRGLDFACDIYIWAPLAGTCGVLLLSLVITLYCNHRNKRGRKKLLYIFKQPFMRPVQTTQEEDGCSCRFPEEEEGGCELRVKFSRSADAPAYQQGQNQLYNELNLGRREEYDVLDKRRGRDPEMGGKPRRKNPQEGLYNELQKDKMAEAYSEIGMKGERRRGKGHDGLYQGLSTATKDTYDALHMQALPPRGSGEGRGSLLTCGDVEENPG
notes: Chimeric antigen receptor on the cell surface; The entry ends with GSG and the T2A remnant; also called clone28-bbz
positive rate of CD107a in the CD8+/CAR+ cell population, target cell 3D11 (CD22 knockout/knockdown Raji) [1]: 16.9% | positive rate of CD107a in the CD8+/CAR+ cell population, target cell JVM2 [1]: 43.5% | positive rate of CD107a in the CD8+/CAR+ cell population, target cell NALM6 [1]: 73.5% | positive rate of CD107a in the CD8+/CAR+ cell population, target cell REH [1]: 70.4% | positive rate of CD107a in the CD8+/CAR+ cell population, target cell raji [1]: 54.8% | in vitro cell killing efficiency, target cells NALM6-ffLuc, 17 h, E:T 0.5:1 [2]: -26.8% | in vitro cell killing efficiency, target cells NALM6-ffLuc, 17 h, E:T 1:1 [2]: 13.8% | in vitro cell killing efficiency, target cells NALM6-ffLuc, 17 h, E:T 2:1 [2]: 76.1% | in vitro cell killing efficiency, target cells REH-ffLuc, 17 h, E:T 0.5:1 [3]: -50.1% | in vitro cell killing efficiency, target cells REH-ffLuc, 17 h, E:T 1:1 [3]: -23.9% | in vitro cell killing efficiency, target cells REH-ffLuc, 17 h, E:T 2:1 [3]: 63.8% | percent of cells in Q1 (FITC-CD22 positive, APC-CD8 negative) [4]: 23.3% | percent of cells in Q2 (FITC-CD22 positive, APC-CD8 positive) [4]: 12.7%

B5: clone 17 anti-CD22 antibody in the form of IgG (antibody, V domains shown)
VH: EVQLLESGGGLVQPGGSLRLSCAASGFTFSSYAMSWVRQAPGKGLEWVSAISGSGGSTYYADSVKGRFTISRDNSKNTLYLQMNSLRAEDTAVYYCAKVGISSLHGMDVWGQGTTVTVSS
VL: DIQMTQSPSTLSASVGDRVTITCRASQSISSWLAWYQQKPGKAPKLLIYKASSLESGVPSRFSGSGSGTEFTLTISSLQPDDFATYYCQQYERFPWTFGGGTKVEIK
notes: Fully human; tested 'in the form of IgG'
Kd (human CD22 [5]): 1.6 nM | Response (human CD22 [5]): 0.62 nm | koff (human CD22 [5]): 0.0002 s⁻¹ | kon (human CD22 [5]): 130000 M⁻¹ s⁻¹

B6: clone 28 anti-CD22 antibody in the form of Fab (Fab, V domains shown)
VH: QVQLQESGPGLVKPSETLSLTCTVSGGSISSYYWSWIRQPAGKGLEWIGRIYTSGSTNYNPSLKSRVTMSVDTSKNQFSLKLSSVTAADTAVYYCARDLYRDGMDVWGQGTTVTVSS
VL: B5 VL with Y49S, K50D, Y91A, E92N, R93T, F94Y, P95S, W96P
notes: Tested 'in the form of Fab'
Kd (human CD22 [6]): 0.94 nM | Response (human CD22 [6]): 0.25 nm | koff (human CD22 [6]): 0.00027 s⁻¹ | kon (human CD22 [6]): 280000 M⁻¹ s⁻¹

B7: clone 17 anti-CD22 antibody in the form of Fab (Fab, V domains shown)
VH: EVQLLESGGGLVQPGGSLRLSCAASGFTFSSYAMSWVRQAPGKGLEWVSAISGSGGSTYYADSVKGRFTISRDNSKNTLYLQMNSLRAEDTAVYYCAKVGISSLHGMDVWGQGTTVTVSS
VL: B5 VL
notes: Tested 'in the form of Fab'
Kd (human CD22 [6]): 8.1 nM | Response (human CD22 [6]): 0.19 nm | koff (human CD22 [6]): 0.0017 s⁻¹ | kon (human CD22 [6]): 210000 M⁻¹ s⁻¹

Now from value to binder, other results behind:

positive rate of CD107a in the CD8+/CAR+ cell population, target cell 3D11 (CD22 knockout/knockdown Raji) [1]: 18.9% | positive rate of CD107a in the CD8+/CAR+ cell population, target cell JVM2 [1]: 32.8% | positive rate of CD107a in the CD8+/CAR+ cell population, target cell NALM6 [1]: 59.7% | positive rate of CD107a in the CD8+/CAR+ cell population, target cell REH [1]: 62.3% | positive rate of CD107a in the CD8+/CAR+ cell population, target cell raji [1]: 39.7% | percent of cells in Q1 (FITC-CD22 positive, APC-CD8 negative) [4]: 27.5% | percent of cells in Q2 (FITC-CD22 positive, APC-CD8 positive) [4]: 17.6%
B2: clone 80 CAR (CD22-targeted chimeric antigen receptor, clone 80 scFv with CD8α hinge and transmembrane region, 4-1BB and CD3z), on reporter cells or CAR-T cells (other)
chain: QVQLQESGPGLVKPSGTLSLTCAVSGGSISSSNWWSWVRQPPGKGLEWIGEIYHSGSTNYNPSLKSRVTISVDKSKNQFSLKLSSVTAADTAVYYCARLPGYESAFDIWGQGTMVTVSSGGGGSGGGGSGGGGSEIVLTQSPGTLSLSPGERATLSCRASQSVSSSYLAWYQQKPGQAPRLLIYGASSRATGIPDRFSGSGSGTDFTLTISRLEPEDFAVYYCQQAGLFPYTFGGGTKVEIKFVPVFLPAKPTTTPAPRPPTPAPTIASQPLSLRPEACRPAAGGAVHTRGLDFACDIYIWAPLAGTCGVLLLSLVITLYCNHRNKRGRKKLLYIFKQPFMRPVQTTQEEDGCSCRFPEEEEGGCELRVKFSRSADAPAYQQGQNQLYNELNLGRREEYDVLDKRRGRDPEMGGKPRRKNPQEGLYNELQKDKMAEAYSEIGMKGERRRGKGHDGLYQGLSTATKDTYDALHMQALPPRGSGEGRGSLLTCGDVEENPG
notes: Chimeric antigen receptor on the cell surface; also called clone80-bbz
in vitro cell killing efficiency, target cells NALM6-ffLuc, 17 h, E:T 0.5:1 [2]: 15.3% | in vitro cell killing efficiency, target cells NALM6-ffLuc, 17 h, E:T 1:1 [2]: 58.5% | in vitro cell killing efficiency, target cells NALM6-ffLuc, 17 h, E:T 2:1 [2]: 90.5% | in vitro cell killing efficiency, target cells REH-ffLuc, 17 h, E:T 0.5:1 [3]: -18.2% | in vitro cell killing efficiency, target cells REH-ffLuc, 17 h, E:T 1:1 [3]: 40.2% | in vitro cell killing efficiency, target cells REH-ffLuc, 17 h, E:T 2:1 [3]: 89%

Kd (human CD22 [5]): 0.82 nM | Response (human CD22 [5]): 0.93 nm | koff (human CD22 [5]): 0.0002 s⁻¹ | kon (human CD22 [5]): 240000 M⁻¹ s⁻¹
B3: clone 80 anti-CD22 antibody in the form of IgG (antibody, V domains shown)
VH: QVQLQESGPGLVKPSGTLSLTCAVSGGSISSSNWWSWVRQPPGKGLEWIGEIYHSGSTNYNPSLKSRVTISVDKSKNQFSLKLSSVTAADTAVYYCARLPGYESAFDIWGQGTMVTVSS
VL: EIVLTQSPGTLSLSPGERATLSCRASQSVSSSYLAWYQQKPGQAPRLLIYGASSRATGIPDRFSGSGSGTDFTLTISRLEPEDFAVYYCQQAGLFPYTFGGGTKVEIK
notes: as for B5

Kd (human CD22 [6]): 13 nM | Response (human CD22 [6]): 0.24 nm | koff (human CD22 [6]): 0.0046 s⁻¹ | kon (human CD22 [6]): 360000 M⁻¹ s⁻¹
B4: clone 80 anti-CD22 antibody in the form of Fab (Fab, V domains shown)
VH: B3 VH
VL: B3 VL
notes: Tested 'in the form of Fab'

Kd (human CD22 [5]): 0.97 nM | Response (human CD22 [5]): 0.81 nm | koff (human CD22 [5]): 0.0002 s⁻¹ | kon (human CD22 [5]): 210000 M⁻¹ s⁻¹
B8: clone 28 anti-CD22 antibody in the form of IgG (antibody, V domains shown)
VH: B6 VH
VL: B5 VL with Y49S, K50D, Y91A, E92N, R93T, F94Y, P95S, W96P
notes: as for B5
